What was measured:
[1] = Visual inspection of 96-well plates after fibrillation; type: physicochemical; details: after fibrillation in 96-well plates, 24 h
[2] = Fibrillation kinetics by turbidity measurement (UV absorbance at 340 nm); type: physicochemical; details: 100 μM peptide, 731 cpm
Method: Fibrillation kinetics of hCT, rhCT and phCT was followed by measuring the increase in solution turbidity due to formation of soluble oligomeric species and insoluble fibrils. […] At each time point, six replicate measurements were performed for each sample. Fibrillation was carried out for 12 or 24 h at 25° C. with continuous shaking at 731 cpm. Solution turbidity was measured by UV absorbance at 340 nm at 10 or 15-min read intervals. The turbidity data was fitted to the Boltzmann sigmoidal function (Eq. 1) and analyzed as described above.

[3] = Fibrillation kinetics by Thioflavin-T (ThioT) fluorescence measurement; type: physicochemical; details: 100 μM peptide
Method: The fibrillation kinetics of hCT, rhCT and phCT was monitored by measuring the increase in fluorescence intensity upon thioflavin T (ThioT) binding to peptide fibrils. The ThioT stock solution (2.5 mM) was prepared in di-water and diluted 10-fold with buffer to give a working solution (250 μM). […] The peptide solution was quickly transferred to a 96-well microtiter plate and placed in a Synergy Neo2 Multi-Detection microplate reader (BioTek Instruments, Winooski, Vt.). 5 μL of ThioT working solution (250 μM) was added to 245 μL of peptide solution in each well to give a final ThioT concentration of 5 μM per well. At each time point, six replicate measurements were performed for each sample. Fibrillation was carried out for 12 or 24 h at 25° C. with continuous shaking at 731 cpm. The fluorescence intensity of ThioT was bottom-read at an interval of 10 or 15 min, at excitation and emission wavelengths of 440 nm and 482 nm, respectively.
The ThioT fluorescence data were fitted to the Boltzmann sigmoidal function as given below, using GraphPad Prism version 7.03 (GraphPad Software, La Jolla, Calif.).
where A1 is the minimum signal, A2 is the maximum signal, xo is the time at which the change in signal is 50% (t50) and dx′ is the slope of growth phase.^1 The lag time was determined either by sigmoidal fit to the fibrillation kinetics curve or using onset point determination. In sigmoidal fits, the lag time was determined as xo−2 dx′ using parameters obtained from nonlinear fit of the data to Eq. 1. […] In cases where sigmoid curve fitting could not be achieved, the t50 was estimated from the raw data as the time when the signal intensity reached half of the observed maximum value.

[4] = Secondary structure change during fibrillation by CD spectroscopy; type: physicochemical; details: 0 to 1440 min, 100 μM peptide, pH 7.4, 25° C., 731 cpm
Method: Changes in the secondary structure of hCT and phCT were monitored by CD spectroscopy using a Jasco J-815 spectrometer (JASCO Analytical Instruments, Easton, Md.). […] At predetermined time intervals, samples were withdrawn for CD analysis. CD spectra were recorded in a quartz cuvette with 1 mm pathlength, scanned from 190 nm to 260 nm in the far UV range, at a scan speed of 50 nm/min at 20° C. Each spectrum was reported as an average of three scans.

[5] = 20 mM sodium phosphate buffer pH 7.4, 25° C., n=6, mean±SD
[6] = 20 mM sodium phosphate buffer pH 7.4, 25° C., continuous shaking at 731 cpm, n=6, mean±SD
[7] = after 360 min of fibrillation time
[8] = after 1440 min of fibrillation, pepsin digestion

Substance: human calcitonin [hCT]
- appearance on visual inspection [1]: solid dense deposits
- lag time of fibrillation, turbidity [2, 5]: 198 ± 20 min
- t50 of fibrillation, turbidity [2, 5]: 257 ± 15 min
- change in turbidity signal ([2]; pH 7.4, 25° C.): An increase in solution turbidity was also observed
- lag time of fibrillation, ThioT fluorescence [3, 6]: 172 ± 15 min
- t50 of fibrillation, ThioT fluorescence [3, 6]: 236 ± 8 min
- lag time of fibrillation, ThioT fluorescence ([3]; 20 mM sodium phosphate buffer pH 7.4, 25° C., continuous shaking at 731 cpm, n=6, mean±SD, listed as native hCT): 172 ± 15 min
- change in ThioT fluorescence with time ([3]; pH 7.4, 25° C., 731 cpm): an increase in ThioT fluorescence was observed
- deuterium incorporation, fragment 1-8 [7]: 16%
- deuterium incorporation, fragment 1-11 [7]: 13%
- deuterium incorporation, fragment 12-19 [7]: 22%
- percent deuterium uptake, intact level (after 1440 min of fibrillation): 28%
- deuterium uptake, fragment 20-32 [8]: 51%
- deuterium uptake, fragment 26-32 [8]: 54%
- % D (percent deuterium uptake), intact level, Peak II (fibrillation time t=0 min): 68%
- deuterium uptake, C-terminal fragments 20-32 and 26-32, initial value (start of fibrillation): ~60%
- change of CD signal during fibrillation [4]: complete loss in signal
